Experiments:
135TIL = experiment: IFN-γ ELISA with bulk 135TIL (IVT-RNA electroporated 135EBV-B cells; peptide titration and truncation); type: cell-based, human; conditions: serially diluted peptides
Description: Due to low transfection efficiency of EBV-B cells, in vitro transcribed (IVT) RNA of 24 TMGs were generated and then electroporated them into 135EBV-B cells, followed by adding 135TIL cells for antigen recognition based on cytokine release assay.
96-well tissue culture plates were coated with phosphate-buffered saline (PBS, GenDEPOT) containing 50 μg/ml poly-L-lysine (Millipore Sigma) at 37° C. 10 min later, the plates were rinsed twice with PBS. Tumor cells or 293-APCs were seeded at 5×10^4/well in the 96-well plate and cultured at 37° C., 5% CO2 for at least 4 h. For plasmid transfection, 250 ng of plasmid DNA were transfected into 293-APCs per well with 0.5 μl of Lipofectamine 2000 (Thermo Fisher Scientific) according to the manufacturer's instructions and incubated at 37° C., in 5% CO2 overnight. For peptide presentation, synthesized peptides (GeneScript) were added to each well at different final concentrations from 10^2 to 10^−4 μM and incubated at 37° C., 5% CO2. The cells transfected with plasmids or pulsed with peptides were washed with TCM twice, and then cocultured with T cells (1×10^5/well). […]
96-well microplate (Greiner Bio-one) was coated with 50 μl of PBS containing anti-human IFN-γ (Thermo Fisher Scientific, primary antibody, 1 μg/ml) per well and incubated at 4° C. overnight. […] The plate was read at OD450 nm. The concentration of IFN-γ was calculated by standard reading. […]

T-cell clones of 135TIL = experiment: IFN-γ ELISA with tumor-reactive T-cell clones of 135TIL; type: cell-based, human; conditions: peptide titration; 135-1C1 (ADIPOR2), 135-1E1 (LAGE1b)
Description: Thus, immunogenic antigens can be generated from various sources or mechanisms [such as alternative ORFs, noncoding regions (3′ and 5′ UTRs, introns, noncoding RNA)]. […] All other tumor-reactive CD4^+ T-cell clones and CD8^+ T-cell clones recognized the mutation-derived neoantigens. […] To identify these two antigens recognized by these two CD4^+ T-cell clones, an Ii-fusion cDNA library derived from 135 mel tumor cells was constructed using experimental procedures. The Ii-fusion cDNA library pools (approximately 100 cDNA clones per pool) were transfected into 293IMDR3/DP4 or 293IMDR4/DP4 cells, followed by co-culturing with CD4^+ T-cell clones (135-1C1 or 135-1E1). After 2×10^5 cDNA clones, positive cDNA library pools that stimulate two T-cell clones, respectively, were identified based on IFN-γ release by ELISA (FIG. 6B). The positive pools were then transformed into Stbl3™ Escherichia coli, and single bacteria colonies were picked for plasmid DNA isolation. […] The 135-1E1 T cell-reactive cDNA clones encoded the product translated from an alternative reading frame of CTAG2 (LAGE1b) (FIG. 6C and FIG. 7A). […]
T-cell cloning and expansion were performed. […] On day 14, T-cell clones were harvested, counted, tested for tumor reactivity. […]

B1: … MEGAPAGPGGRTAACLSCTSRCLSRRPWKRSWSAGSCPGMPHRSPDQGRF (peptide)
chain: EALAFLMAQGAMLAAQERRVPRAAEVPGAQGQQGPRGREEAPRGVRMAVPLLRRMEGAPAGPGGRTAACLSCTSRCLSRRPWKRSWSAGSCPGMPHRSPDQGRF
notes: 109 aa peptide from frame-shifted reading frame (ORF2) of CTAG2 (LAGE1b)
135TIL
  recognition of titrated peptides by 135TIL (IFN-γ ELISA): little or no activity
T-cell clones of 135TIL
  recognition of antigen peptides by specific T-cell clones: strongly recognized
